Results as given in publication PMC2172828 (The Journal of Cell Biology, 2003).

Target: T1, GST–Cdc15p(1–405) (S. pombe, UniProt Q09822 1-405)
T1 sequence (looked up): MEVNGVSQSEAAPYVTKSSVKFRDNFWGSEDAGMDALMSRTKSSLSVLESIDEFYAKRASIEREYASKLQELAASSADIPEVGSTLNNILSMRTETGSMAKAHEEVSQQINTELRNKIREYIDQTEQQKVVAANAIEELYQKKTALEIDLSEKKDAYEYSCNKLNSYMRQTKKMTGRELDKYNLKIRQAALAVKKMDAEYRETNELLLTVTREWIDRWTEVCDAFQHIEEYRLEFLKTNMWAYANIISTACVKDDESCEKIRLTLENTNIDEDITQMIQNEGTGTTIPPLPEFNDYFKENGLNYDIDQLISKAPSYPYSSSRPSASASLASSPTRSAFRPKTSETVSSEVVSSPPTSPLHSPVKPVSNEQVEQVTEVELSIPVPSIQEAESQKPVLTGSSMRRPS
Assay: pull-down

binding result: binds
B1: MBP–Myo1p(727–1041) (domain or fragment, S. pombe, UniProt Q9Y7Z8 727-1041, looked up)
chain: ATRIQRAWRSYVRRRSEAAACIQKLWNRNKVNMELERVRNEGTKLLQGKKQRRRYSILGSRKFYGDYLSASKPNGTLWNTCGLSQNDHVIFSMRCEVLVHKLGRTSKPSPRQLVLTKKNLYLVITKIVDQKLTQQVEKKFAVSSIDSVGLTNLQDDWVAIRNKSSQNGDMFLRCFFKTEFITTLKRINRNIQVIVGPTIQYCRKPGKVQTVKTAKDETTKDYDYYKSGTIHVGTGLPPTSKSKPFPRLATGGSTAAARGPRPVVQNKPAATKPVSMPAAKSKPAPMANPVSTAQQTQNRPPAPAMQARPNTTQAA
